Test results taken from patent US20170247465A1, “COMBINATION THERAPY FOR TREATMENT OF CANCER” (OncoMed Pharmaceuticals, Inc., priority 2014, published 2017).

Legend:
Format in all cases: in vivo, NOD/SCID mice
[1] = tested on: cancer stem cells in OMP-LU77 lung tumors; experiment: Limiting dilution assay, cancer stem cell frequency in OMP-LU77 lung tumors (Example 7); conditions: tumors from mice treated with vantictumab administered prior to paclitaxel; 50, 150, 500 cells implanted, 79 days; FIG. 5B
Description: FIGS. 5A-5B. Cancer Stem Cell frequency. FIG. 5A. Tumor growth in mice following implantation of 50, 150, or 500 OMP-LU77 tumor cells obtained from mice that had been treated with either control antibody (Control mAb), paclitaxel (Pac), or the combination of OMP-18R5 and paclitaxel (Van+Pac). FIG. 5B. Cancer stem cell (CSC) frequency in OMP-LU77 lung tumors following treatment with control antibody (Control mAb), paclitaxel, or a combination of OMP-18R5 antibody and paclitaxel (Van+Pac) as determined by limiting dilution analysis.
Limiting dilution assays (LDAs) can be used to assess the effect of Wnt pathway inhibitors on solid tumor cancer stem cells and/or on the tumorigenicity of a tumor. The assays can be used to determine the frequency of cancer stem cells in tumors from animals treated with the Wnt pathway inhibitor and to compare that frequency to the frequency of cancer stem cells in tumors from control animals. […]
For the LDA, the tumor cells in the suspension were harvested, counted, and appropriate cell doses (50, 150, and 500 cells) were injected subcutaneously in NOD/SCID mice (10 mice per cell dose per treatment group). […] The percentage of mice with detectable tumors was determined in all treatment groups and compared to the percentage of mice with detectable tumors in the controls. […]

[2] = tested on: OMP-B90 breast tumor cells; experiment: OMP-B90 breast tumor xenograft, staggered dosing of Wnt inhibitors and paclitaxel (Example 9); conditions: Wnt pathway inhibitor 25 mg/kg every two weeks, administered 2 days prior to paclitaxel 10 mg/kg once a week, i.p., FIG. 7
Procedure: FIG. 7A-7B. Inhibition of breast tumor growth in vivo by a Wnt pathway inhibitor in combination with a taxane using a staggered dosing schedule. FIG. 7A. OMP-B90 breast tumor cells were injected subcutaneously into NOD/SCID mice. Mice were treated with control antibody (-•-), paclitaxel (-▴-), a combination of OMP-18R5 and paclitaxel, where OMP-18R5 was administered on the same day as paclitaxel (-□-), or a combination of OMP-18R5 and paclitaxel, where OMP-18R5 was administered 2 days prior to administration of paclitaxel (-⋄-). FIG. 7B. OMP-B90 breast tumor cells were injected subcutaneously into NOD/SCID mice. Mice were treated with control antibody (-•-), OMP-54F28 (-▪-), paclitaxel (-▴-), a combination of OMP-54F28 and paclitaxel, where OMP-54F28 was administered on the same day as paclitaxel (-□-), or a combination of OMP-54F28 and paclitaxel, where OMP-54F28 was administered 2 days prior to administration of paclitaxel (-⋄-). OMP-18R5, OMP-54F28 and control antibody were administered at 25 mg/kg and paclitaxel was administered at 10 mg/kg. […]
Single cell suspensions of xenograft OMP-B90 breast tumor cells were injected subcutaneously into 6-8 week old NOD/SCID mice. […] Tumor growth was monitored and tumor volumes were measured with electronic calipers at the indicated time points. Data are expressed as mean±S.E.M.

[3] = tested on: OMP-C28 colon tumor cells; experiment: OMP-C28 colon tumor xenograft, staggered dosing of Wnt inhibitors and nab-paclitaxel (Example 10); conditions: Wnt pathway inhibitor 25 mg/kg every two weeks, administered 2 days prior to nab-paclitaxel 15 mg/kg once a week, i.p.; versus single agents; FIG. 8
Procedure: FIG. 8A-8B. Inhibition of colon tumor growth in vivo by a Wnt pathway inhibitor in combination with a taxane using a staggered dosing schedule. FIG. 8A. OMP-C28 colon tumor cells were injected subcutaneously into NOD/SCID mice. Mice were treated with control antibody (-•-), OMP-18R5 (-▴-), nab-paclitaxel (-▪-), or a combination of OMP-18R5 and nab-paclitaxel, where OMP-18R5 was administered 2 days prior to administration of nab-paclitaxel (-⋄-). FIG. 8B. OMP-C28 colon tumor cells were injected subcutaneously into NOD/SCID mice. Mice were treated with control antibody (-•-), OMP-54F28 (-▴-), nab-paclitaxel (-▪-), or a combination of OMP-54F28 and nab-paclitaxel, where OMP-54F28 was administered 2 days prior to administration of nab-paclitaxel (-⋄-). OMP-18R5, OMP-54F28 and control were administered at 25 mg/kg and nab-paclitaxel was administered at 15 mg/kg. OMP-18R5, OMP-54F28 and control were administered once every two weeks, paclitaxel was administered once a week, and all agents were administered intraperitoneally. Data is shown as tumor volume (mm^3) over days post treatment.
Single cell suspensions of xenograft OMP-C28 colon tumor cells were injected subcutaneously into 6-8 week old NOD/SCID mice. […] Tumor growth was monitored and tumor volumes were measured with electronic calipers at the indicated time points. Data are expressed as mean±S.E.M.

B1: OMP-18R5: anti-FZD antibody, IgG2, also known as vantictumab; heavy chain SEQ ID NO:3, light chain SEQ ID NO:4 (antibody)
heavy: EVQLVESGGGLVQPGGSLRLSCAASGFTFSHYTLSWVRQAPGKGLEWVSVISGDGSYTYYADSVKGRFTISSDNSKNTLYLQMNSLRAEDTAVYYCARNFIKYVFANWGQGTLVTVSSASTKGPSVFPLAPCSRSTSESTAALGCLVKDYFPEPVTVSWNSGALTSGVHTFPAVLQSSGLYSLSSVVTVPSSNFGTQTYTCNVDHKPSNTKVDKTVERKCCVECPPCPAPPVAGPSVFLFPPKPKDTLMISRTPEVTCVVVDVSHEDPEVQFNWYVDGVEVHNAKTKPREEQFNSTFRVVSVLTVVHQDWLNGKEYKCKVSNKGLPAPIEKTISKTKGQPREPQVYTLPPSREEMTKNQVSLTCLVKGFYPSDIAVEWESNGQPENNYKTTPPMLDSDGSFFLYSKLTVDKSRWQQGNVFSCSVMHEALHNHYTQKSLSLSPGK
light: DIELTQPPSVSVAPGQTARISCSGDNIGSFYVHWYQQKPGQAPVLVIYDKSNRPSGIPERFSGSNSGNTATLTISGTQAEDEADYYCQSYANTLSLVFGGGTKLTVLGQPKAAPSVTLFPPSSEELQANKATLVCLISDFYPGAVTVAWKADSSPVKAGVETTTPSKQSNNKYAASSYLSLTPEQWKSHRSYSCQVTHEGSTVEKTVAPTECS
cancer stem cell frequency (limiting dilution analysis, L-Calc) [1]: significantly decreased the cancer stem frequency | regression of established tumors [2]: induced a regression of the established breast tumors | inhibition of tumor growth (tumor volume) ([2]; versus other dosing regimens): significantly better at inhibiting tumor growth of the OMP-B90 breast tumor cells than any of the other dosing regimens | inhibition of tumor growth (tumor volume) [3]: inhibited tumor growth of the OMP-C28 colon tumor cells to a greater extent than either the Wnt pathway inhibitors or nab-paclitaxel alone
